Data as given in patent publication US20120100141A1 (GlaxoSmithKline, published 2012).

How the values were obtained:
Experiment in all cases: melanophore functional bioassay, transfected cells (data not shown)
Human NPY2R = target: T1, Human NPY2R (human, UniProt P49146 1-381)
T1 construct: whole, on cells; also called NPY2R (human)
T1 sequence (looked up): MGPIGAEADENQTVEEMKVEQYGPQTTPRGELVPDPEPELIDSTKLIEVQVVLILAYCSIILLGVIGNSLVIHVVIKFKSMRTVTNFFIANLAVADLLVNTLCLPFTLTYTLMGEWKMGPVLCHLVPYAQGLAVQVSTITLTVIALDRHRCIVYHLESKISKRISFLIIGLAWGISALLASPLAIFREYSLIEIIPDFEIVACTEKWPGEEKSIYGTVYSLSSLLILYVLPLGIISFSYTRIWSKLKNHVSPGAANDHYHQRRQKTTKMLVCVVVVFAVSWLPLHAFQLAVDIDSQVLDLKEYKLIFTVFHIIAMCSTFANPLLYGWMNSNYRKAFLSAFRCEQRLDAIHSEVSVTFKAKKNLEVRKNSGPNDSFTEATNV
Method: (§1) For assaying purposes cells were washed, trypsinized and resuspended in 0.7×EPG PBS at a concentration of 15×10⁶ cells per ml. 800 μl of cells were gently mixed with 20-40 μg of cDNA and incubated on ice for 20 minutes. […] After 2 hours they were placed in a sealed container in the incubator overnight (25° C., 0% CO2). The following day media was aspirated and 25 μl MAB (Melanophore Assay Buffer) containing 1% DMSO and 10 nM melatonin was added to each well. Cells were incubated for one hour and basal transmittance was measured on a SLT Spectra plate reader at 620 nm. Next, a dilution series (12 point series using 3 fold dilution intervals in MAB) containing 25 μl of a 2× concentration peptides and standards were added directly to each well. Standards included melatonin 10 nM, MSH 200 nM and MAB and were used to establish assay system Minimum, Maximum, and basal response levels, respectively. Following addition of peptides and standards, plates were incubated for 1 hour and transmittance measured as before. Data was analyzed using Robosage (version 7.3.2) by calculating (1−Tf/Ti) where Ti is initial baseline read, and Tf is the response read.

Human NPY4R = target: T2, Human NPY4R (human, UniProt P50391 1-375)
T2 construct: whole, on cells; also called NPY4R (human)
Method: as §1

Mouse NPY5R = target: T3, Mouse NPY5R (mouse, UniProt O70342 1-466)
T3 construct: whole, on cells; also called NPY5R (mouse)
T3 sequence (looked up): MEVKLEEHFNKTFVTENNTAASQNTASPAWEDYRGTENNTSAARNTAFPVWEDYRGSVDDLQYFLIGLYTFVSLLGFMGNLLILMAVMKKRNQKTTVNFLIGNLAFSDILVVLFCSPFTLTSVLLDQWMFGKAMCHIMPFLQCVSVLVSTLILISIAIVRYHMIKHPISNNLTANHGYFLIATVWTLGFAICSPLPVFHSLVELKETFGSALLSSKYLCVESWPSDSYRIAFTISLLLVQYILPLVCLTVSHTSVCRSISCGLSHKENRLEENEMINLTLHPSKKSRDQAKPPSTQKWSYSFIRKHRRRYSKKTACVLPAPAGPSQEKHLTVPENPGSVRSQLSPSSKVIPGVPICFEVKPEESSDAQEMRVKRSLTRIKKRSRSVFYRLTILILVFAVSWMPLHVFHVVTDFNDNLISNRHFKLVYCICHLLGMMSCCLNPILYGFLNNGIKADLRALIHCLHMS
Method: as §1

Human NPY1R = target: T4, Human NPY1R (human, UniProt P25929 1-384)
T4 construct: whole, on cells; also called NPY1R (human)
T4 sequence (looked up): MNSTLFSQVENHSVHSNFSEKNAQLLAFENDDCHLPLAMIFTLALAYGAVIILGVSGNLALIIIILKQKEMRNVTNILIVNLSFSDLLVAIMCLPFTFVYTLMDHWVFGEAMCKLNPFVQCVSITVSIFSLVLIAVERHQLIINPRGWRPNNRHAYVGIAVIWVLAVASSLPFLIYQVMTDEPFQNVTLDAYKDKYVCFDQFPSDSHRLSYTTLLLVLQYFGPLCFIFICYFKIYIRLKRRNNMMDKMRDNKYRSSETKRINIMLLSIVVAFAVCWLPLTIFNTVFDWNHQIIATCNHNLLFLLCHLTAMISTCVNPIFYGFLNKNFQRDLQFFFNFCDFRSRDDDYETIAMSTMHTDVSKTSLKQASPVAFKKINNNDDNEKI
Method: as §1

Mouse NPY2R = target: T5, Mouse NPY2R (mouse, UniProt P97295 1-381)
T5 construct: whole, on cells; also called NPY2R (mouse)
T5 sequence (looked up): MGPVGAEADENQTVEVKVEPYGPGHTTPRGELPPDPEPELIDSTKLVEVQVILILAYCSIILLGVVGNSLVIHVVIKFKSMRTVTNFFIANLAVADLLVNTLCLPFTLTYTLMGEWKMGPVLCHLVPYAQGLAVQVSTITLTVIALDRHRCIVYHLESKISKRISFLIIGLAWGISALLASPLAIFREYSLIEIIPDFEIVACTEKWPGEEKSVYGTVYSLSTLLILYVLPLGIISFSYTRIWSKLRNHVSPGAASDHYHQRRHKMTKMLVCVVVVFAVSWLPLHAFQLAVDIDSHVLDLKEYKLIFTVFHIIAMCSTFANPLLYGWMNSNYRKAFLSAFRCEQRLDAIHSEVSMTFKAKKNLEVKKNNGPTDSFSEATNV
Method: as §1

Mouse NPY1R = target: T6, Mouse NPY1R (mouse, UniProt Q04573 1-382)
T6 construct: whole, on cells; also called NPY1R (mouse)
T6 sequence (looked up): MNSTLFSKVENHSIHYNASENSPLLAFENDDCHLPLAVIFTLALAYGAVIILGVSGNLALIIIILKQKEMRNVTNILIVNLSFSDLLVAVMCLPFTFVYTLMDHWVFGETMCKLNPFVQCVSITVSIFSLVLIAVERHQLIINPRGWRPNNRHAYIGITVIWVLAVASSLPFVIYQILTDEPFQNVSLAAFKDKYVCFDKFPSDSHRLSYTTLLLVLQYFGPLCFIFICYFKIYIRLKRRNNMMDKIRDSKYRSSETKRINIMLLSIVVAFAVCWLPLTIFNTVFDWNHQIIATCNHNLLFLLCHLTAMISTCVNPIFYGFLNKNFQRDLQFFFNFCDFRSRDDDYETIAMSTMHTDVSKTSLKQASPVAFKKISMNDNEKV
Method: as §1

Mouse NPY4R = target: T7, Mouse NPY4R (mouse, UniProt Q61041 1-375)
T7 construct: whole, on cells; also called NPY4R (mouse)
Method: as §1

Human NPY5R = target: T8, Human NPY5R (human, UniProt Q15761 1-445)
T8 construct: whole, on cells; also called NPY5R (human)
T8 sequence (looked up): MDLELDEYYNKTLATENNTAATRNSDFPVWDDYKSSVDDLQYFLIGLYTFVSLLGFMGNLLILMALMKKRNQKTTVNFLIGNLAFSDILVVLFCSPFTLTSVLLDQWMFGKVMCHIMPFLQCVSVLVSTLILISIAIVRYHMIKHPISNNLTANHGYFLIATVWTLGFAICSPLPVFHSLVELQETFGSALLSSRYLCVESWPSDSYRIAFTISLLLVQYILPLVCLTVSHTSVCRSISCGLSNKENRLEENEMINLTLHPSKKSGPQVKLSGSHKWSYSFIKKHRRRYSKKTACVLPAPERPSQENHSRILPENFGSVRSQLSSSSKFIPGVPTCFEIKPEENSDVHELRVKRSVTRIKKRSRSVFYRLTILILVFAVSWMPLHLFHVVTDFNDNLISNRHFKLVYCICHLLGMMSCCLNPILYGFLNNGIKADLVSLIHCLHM
Method: as §1

T2 sequence (P50391 whole entry): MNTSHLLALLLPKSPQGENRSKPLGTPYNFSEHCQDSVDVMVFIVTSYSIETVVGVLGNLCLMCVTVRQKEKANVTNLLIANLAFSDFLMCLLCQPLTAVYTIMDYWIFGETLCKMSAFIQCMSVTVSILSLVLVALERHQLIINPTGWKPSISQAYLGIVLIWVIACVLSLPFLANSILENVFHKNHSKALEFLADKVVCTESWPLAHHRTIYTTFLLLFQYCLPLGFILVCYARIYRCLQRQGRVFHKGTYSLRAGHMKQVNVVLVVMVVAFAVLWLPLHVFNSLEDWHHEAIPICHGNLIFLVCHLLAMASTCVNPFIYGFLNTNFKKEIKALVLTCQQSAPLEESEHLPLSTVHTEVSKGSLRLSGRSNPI
T7 sequence (Q61041 whole entry): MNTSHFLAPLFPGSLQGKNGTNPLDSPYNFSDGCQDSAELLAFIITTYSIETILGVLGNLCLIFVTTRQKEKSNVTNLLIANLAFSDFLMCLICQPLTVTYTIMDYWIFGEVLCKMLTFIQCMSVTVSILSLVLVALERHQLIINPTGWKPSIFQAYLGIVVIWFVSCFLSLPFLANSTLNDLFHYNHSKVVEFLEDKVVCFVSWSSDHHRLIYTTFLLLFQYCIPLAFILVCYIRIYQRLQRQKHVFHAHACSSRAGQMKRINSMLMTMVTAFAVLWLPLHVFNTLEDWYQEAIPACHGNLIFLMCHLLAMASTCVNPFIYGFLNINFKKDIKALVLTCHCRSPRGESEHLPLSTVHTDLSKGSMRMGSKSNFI

binding result (Human NPY2R): binds
binding result (Human NPY4R): binds
binding result (Mouse NPY5R): binds
binding result (Human NPY1R): binds
binding result (Mouse NPY2R): binds
binding result (Mouse NPY1R): binds
binding result (Mouse NPY4R): binds
binding result (Human NPY5R): binds
B1: PYY (3-36) DOM7h-14-10 (R108C) AlbudAb peptide conjugate DMS7605 (other)
chain: DIQMTQSPSSLSASVGDRVTITCRASQWIGSQLSWYQQKPGKAPKLLIMWRSSLQSGVPSRFSGSGSGTDFTLTISSLQPEDFATYYCAQGLRHPKTFGQGTKVEIKC
peptide: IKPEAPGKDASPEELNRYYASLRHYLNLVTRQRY
modifications: C-terminal amide; lysine at position 10 derivatised with the 4 repeat PEG linker to the dAb cysteine; free C-terminal cysteine (R108C) coupled through maleimide to a 4 repeat PEG linker that is attached to the lysine at position 10 of the PYY peptide
notes: Chemical conjugate, not a genetic fusion; The dAb was made in E. coli, the peptide and PEG linker by chemical synthesis; also called DMS7167:PYY3-36; PYY(3-36) AlbudAb
